Experimental data from article doi:10.1101/2023.04.03.535215.

Biological target: SARS-CoV-2 S protein receptor-binding domain (SARS-CoV-2) (UniProt P0DTC2)
Assay: ELISA

## Native human surfactant protein A (from UniProt Q8IWL2 21-248) (natural protein)
  percent decrease of binding in 10 mM EDTA: 59%
